Measured values as given in publication PMC5425256 (Developmental Cell, 2017).

Biological target: recombinant GST-Pak6 (from pMW-GST-Pak6, E. coli) (human, UniProt Q9NQU5 1-681)
Test: pull-down
Details: both partners purified

recombinant GST-Pak6 (from pMW-GST-Pak6, E. coli), sequence (Q9NQU5 whole entry): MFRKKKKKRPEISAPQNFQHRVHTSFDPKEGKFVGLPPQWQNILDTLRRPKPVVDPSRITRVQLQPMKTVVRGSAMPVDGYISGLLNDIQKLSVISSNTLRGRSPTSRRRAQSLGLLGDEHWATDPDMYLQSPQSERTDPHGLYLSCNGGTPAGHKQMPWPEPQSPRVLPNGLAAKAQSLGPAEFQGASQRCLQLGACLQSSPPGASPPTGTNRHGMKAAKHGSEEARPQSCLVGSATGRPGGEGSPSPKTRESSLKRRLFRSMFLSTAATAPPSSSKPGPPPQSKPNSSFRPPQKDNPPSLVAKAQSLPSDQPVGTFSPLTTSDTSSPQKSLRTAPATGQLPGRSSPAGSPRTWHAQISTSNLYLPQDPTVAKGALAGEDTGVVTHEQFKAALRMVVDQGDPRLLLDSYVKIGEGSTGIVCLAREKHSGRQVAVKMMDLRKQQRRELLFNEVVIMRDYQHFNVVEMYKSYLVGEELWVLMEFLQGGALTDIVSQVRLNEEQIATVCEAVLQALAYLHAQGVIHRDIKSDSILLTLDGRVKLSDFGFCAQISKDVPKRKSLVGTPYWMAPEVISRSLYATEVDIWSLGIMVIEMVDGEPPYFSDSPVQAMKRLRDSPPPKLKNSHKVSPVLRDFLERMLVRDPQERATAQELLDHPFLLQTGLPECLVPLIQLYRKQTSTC

B1: recombinant His-RhoD loaded with GTPγS (natural protein, mouse, UniProt P97348 1-210, looked up)
chain: MNASQVAGEEAPQSGHSVKVVLVGDGGCGKTSLMMVFAKGAFPESYSPTVFERYNATLQMKGKPVHLQIWDTAGQDDYDRLRPLFYPDANVLLLCFDVTNPNSFDNVSNRWYPEVTHFCKGVPIIVVGCKIDLRKDKVLVNNLRKKRLEPVTYHRGHDMARSVGAVAYLECSARLHDNVEAVFQEAAEVALSSRRHNFWRRITQNCCLAT
binding result: binds
